According to publication PMC5980995, “An allostatic mechanism for M2 pyruvate kinase as an amino-acid sensor” (Biochemical Journal, 2018):

Target: the molecule itself
Assay: cell-based or functional assay

B1: M2 isoenzyme of pyruvate kinase (M2PYK), human, N-terminal His6 tag (enzyme)
chain: not shown
half-life of the loss of enzyme activity (LDH-coupled assay) after dilution from 20 mg/ml to 0.002 mg/ml in PBS-CM pH 7.4, taken as dissociation of the tetramer: ~15 min
